The target of assay [1] is Myostatin (UniProt O14793). Description: cell-based or functional assay.
The target of the next assay is Activin A (UniProt P08476). Put plainly: cell-based or functional assay.
Assay [2] addresses FcRn receptor. Put plainly: FcRn binding, 'standard methods'.
Assay [3] concerns the target Myostatin (UniProt O14793). Put plainly: SPR. A general note: Surface plasmon resonance follows binding to a sensor surface in real time, without labels.
The target in assay [4] is FcRn receptor. Put plainly: SPR.
For assay [5], the target named is Myostatin (UniProt O14793). Put plainly: SPR (BIAcore), anti-human Fc capture, myostatin as analyte.

pKd: −log10 of the molar value.

What is called pKd is the negative decadic logarithm of the Kd, by convention in mol/L.

Chain of FcRn receptor (P55899 24-297, chain 1 of 2): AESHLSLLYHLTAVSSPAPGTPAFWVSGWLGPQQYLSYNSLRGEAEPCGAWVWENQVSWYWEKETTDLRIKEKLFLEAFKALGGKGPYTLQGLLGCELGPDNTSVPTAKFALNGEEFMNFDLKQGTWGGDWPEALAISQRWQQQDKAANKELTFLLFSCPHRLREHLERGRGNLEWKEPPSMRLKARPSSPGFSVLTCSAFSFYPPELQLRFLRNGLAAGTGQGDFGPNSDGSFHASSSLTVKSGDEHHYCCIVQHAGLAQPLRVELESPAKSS
Chain of FcRn receptor (P61769 21-119, chain 2 of 2, further chain): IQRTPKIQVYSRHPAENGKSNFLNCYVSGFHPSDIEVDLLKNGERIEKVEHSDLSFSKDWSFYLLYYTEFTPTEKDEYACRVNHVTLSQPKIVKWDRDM
Chain of Myostatin (O14793 267-375 limits assumed): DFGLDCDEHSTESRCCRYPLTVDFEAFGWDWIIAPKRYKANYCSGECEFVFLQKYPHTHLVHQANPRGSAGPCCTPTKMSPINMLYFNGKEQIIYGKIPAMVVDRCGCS
Chain of Activin A (P08476 311-426): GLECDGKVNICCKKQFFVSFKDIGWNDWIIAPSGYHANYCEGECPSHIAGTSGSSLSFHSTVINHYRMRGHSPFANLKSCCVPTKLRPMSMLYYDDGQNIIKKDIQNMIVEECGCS

On to FS315K(81,82,84)E-hFcLALA (Fc fusion), for which, in the assay with Myostatin [1], the Myostatin IC50, cell-based assay for SMAD pathway (A204 luciferase reporter) turned out to be 400 pM. The substance also returned an Activin A IC50, cell-based assay for SMAD pathway (A204 luciferase reporter) with Activin A of 1000 pM.
In the assay with Myostatin [1], FS315R78E/K(82,84)E-hFcLALA (Fc fusion) registered a Myostatin IC50, cell-based assay for SMAD pathway (A204 luciferase reporter) of 500 pM. The Activin A IC50, cell-based assay for SMAD pathway (A204 luciferase reporter) in the assay with Activin A is 600 pM.
As to FS315ΔHBS-hFcLALA (Fc fusion), the pKd with FcRn receptor [2] was 6.43; with Myostatin [3], 10.76; in the assay with FcRn receptor [4], 7.32. The Myostatin IC50, cell-based assay for SMAD pathway (A204 luciferase reporter) with Myostatin [1] came to 400 pM.
With monoFS315ΔHBS-hFcLALA (Fc fusion), the pKd with FcRn receptor [2] is 7.44; with Myostatin [5] it was 11.48.

Source of the values: patent US20180362604A1.
